Data published in article PMC9482650, “Quantitative fragmentomics allow affinity mapping of interactomes” (Nature Communications, 2022).
Numbering of substitutions follows the chain as printed.

B1: TNRC6A, Q8NDV7 (peptide)
chain: DHLGGGGESM
B2: IGF1R, P08069 (peptide)
chain: ALPLPQSSTC
B3: GNG4, P50150 (peptide)
chain: REKKFFCTIL
B4: PLCB1, Q9NQ66 (peptide)
chain: IPGKEFDTPL

Biological target: Inadl_5, Q8NI35
Experiment: holdup assay
Set-up: key: below the threshold = too weak to quantify, mostly under pKd 3.1 to 4
Settings: plain residues with an end cap or a label only (N-terminal biotin on a linker: ado-ado)

Chain of Inadl_5, Q8NI35 (Q8NI35 673-780): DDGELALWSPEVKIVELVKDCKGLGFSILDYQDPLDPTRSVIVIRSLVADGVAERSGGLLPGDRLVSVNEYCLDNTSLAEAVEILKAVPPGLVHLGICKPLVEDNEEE

Binder	pKd
B1	below the threshold
B2	below the threshold
B3	below the threshold
B4	below the threshold

Biological target: T1, PDZD2_2, O15018
T1 sequence (O15018 329-429, limits assumed, looked up): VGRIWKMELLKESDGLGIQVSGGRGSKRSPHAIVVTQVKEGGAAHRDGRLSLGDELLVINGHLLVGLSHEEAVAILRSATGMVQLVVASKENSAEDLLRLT
Experiment: holdup assay
Set-up: key: below the threshold = too weak to quantify, mostly under pKd 3.1 to 4
Settings: plain residues with an end cap or a label only (N-terminal biotin on a linker: ado-ado)

Binder	pKd
B1	below the threshold
B2	4.46
B3	4.06
B4	3.62

Biological target: FRMPD3, Q5JV73
Experiment: holdup assay
Set-up: key: below the threshold = too weak to quantify, mostly under pKd 3.1 to 4
Settings: plain residues with an end cap or a label only (N-terminal biotin on a linker: ado-ado)

Chain of FRMPD3, Q5JV73 (Q5JV73 12-100): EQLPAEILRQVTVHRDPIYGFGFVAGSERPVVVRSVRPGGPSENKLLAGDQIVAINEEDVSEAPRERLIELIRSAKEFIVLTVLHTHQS

Binder	pKd
B1	below the threshold
B2	below the threshold
B3	below the threshold
B4	3.55

Biological target: PICK1, Q9NRD5
Experiment: holdup assay
Set-up: key: below the threshold = too weak to quantify, mostly under pKd 3.1 to 4
Settings: plain residues with an end cap or a label only (N-terminal biotin on a linker: ado-ado)

Chain of PICK1, Q9NRD5 (Q9NRD5 17-115): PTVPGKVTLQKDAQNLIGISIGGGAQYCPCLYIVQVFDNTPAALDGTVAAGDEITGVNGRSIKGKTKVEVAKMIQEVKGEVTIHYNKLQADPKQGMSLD

Binder	pKd
B1	below the threshold
B2	below the threshold
B3	below the threshold
B4	below the threshold

Biological target: T2, SYNJ2BP, P57105
T2 sequence (P57105 8-110, limits assumed, looked up): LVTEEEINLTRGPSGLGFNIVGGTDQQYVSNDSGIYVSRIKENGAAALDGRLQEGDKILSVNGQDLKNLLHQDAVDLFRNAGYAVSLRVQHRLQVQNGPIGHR
Experiment: holdup assay
Set-up: key: below the threshold = too weak to quantify, mostly under pKd 3.1 to 4
Settings: plain residues with an end cap or a label only (N-terminal biotin on a linker: ado-ado)

Binder	pKd
B1	below the threshold
B2	3.67
B3	4.27
B4	4.33

Biological target: T3, SNTG1, Q9NSN8
T3 sequence (Q9NSN8 52-150, limits assumed, looked up): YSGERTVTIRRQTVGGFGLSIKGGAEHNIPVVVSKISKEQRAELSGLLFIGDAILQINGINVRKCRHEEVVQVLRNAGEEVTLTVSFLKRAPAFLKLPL
Experiment: holdup assay
Set-up: key: below the threshold = too weak to quantify, mostly under pKd 3.1 to 4
Settings: plain residues with an end cap or a label only (N-terminal biotin on a linker: ado-ado)

Binder	pKd
B1	below the threshold
B2	below the threshold
B3	below the threshold
B4	below the threshold

Biological target: T4, RAPGEF6, Q8TEU7
T4 sequence (Q8TEU7 525-625, limits assumed, looked up): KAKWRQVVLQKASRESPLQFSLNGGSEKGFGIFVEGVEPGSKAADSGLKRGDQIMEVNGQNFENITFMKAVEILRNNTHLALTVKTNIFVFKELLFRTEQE
Experiment: holdup assay
Set-up: key: below the threshold = too weak to quantify, mostly under pKd 3.1 to 4
Settings: plain residues with an end cap or a label only (N-terminal biotin on a linker: ado-ado)

Binder	pKd
B1	below the threshold
B2	below the threshold
B3	below the threshold
B4	below the threshold

Biological target: T5, GRIP1_4, Q9Y3R0
T5 sequence (Q9Y3R0 467-571, limits assumed, looked up): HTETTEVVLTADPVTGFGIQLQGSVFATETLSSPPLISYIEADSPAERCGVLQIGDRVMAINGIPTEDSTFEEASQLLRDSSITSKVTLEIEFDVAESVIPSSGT
Experiment: holdup assay
Set-up: key: below the threshold = too weak to quantify, mostly under pKd 3.1 to 4
Settings: plain residues with an end cap or a label only (N-terminal biotin on a linker: ado-ado)

Binder	pKd
B1	below the threshold
B2	below the threshold
B3	3.56
B4	below the threshold

Biological target: T6, LIN7A, O14910
T6 sequence (O14910 103-200, limits assumed, looked up): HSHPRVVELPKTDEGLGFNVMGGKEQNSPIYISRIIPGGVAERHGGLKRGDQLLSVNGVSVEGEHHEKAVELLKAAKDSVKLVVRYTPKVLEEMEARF
Experiment: holdup assay
Set-up: key: below the threshold = too weak to quantify, mostly under pKd 3.1 to 4
Settings: plain residues with an end cap or a label only (N-terminal biotin on a linker: ado-ado)

Binder	pKd
B1	below the threshold
B2	below the threshold
B3	3.6
B4	below the threshold

Biological target: T7, SNTB1, Q13884
T7 sequence (Q13884 107-205, limits assumed, looked up): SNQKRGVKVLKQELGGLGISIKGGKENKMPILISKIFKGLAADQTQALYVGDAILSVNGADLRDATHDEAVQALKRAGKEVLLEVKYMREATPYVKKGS
Experiment: holdup assay
Set-up: key: below the threshold = too weak to quantify, mostly under pKd 3.1 to 4
Settings: plain residues with an end cap or a label only (N-terminal biotin on a linker: ado-ado)

Binder	pKd
B1	below the threshold
B2	below the threshold
B3	4.43
B4	3.96

Biological target: T8, PTPN13_1, Q12923
T8 sequence (Q12923 1088-1188, limits assumed, looked up): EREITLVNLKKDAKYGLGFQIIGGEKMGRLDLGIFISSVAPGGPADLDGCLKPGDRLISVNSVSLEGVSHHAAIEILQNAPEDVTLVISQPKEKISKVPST
Experiment: holdup assay
Set-up: key: below the threshold = too weak to quantify, mostly under pKd 3.1 to 4
Settings: plain residues with an end cap or a label only (N-terminal biotin on a linker: ado-ado)

Binder	pKd
B1	below the threshold
B2	below the threshold
B3	below the threshold
B4	below the threshold

Biological target: TJP1_3, Q07157
Experiment: holdup assay
Set-up: key: below the threshold = too weak to quantify, mostly under pKd 3.1 to 4
Settings: plain residues with an end cap or a label only (N-terminal biotin on a linker: ado-ado)

Chain of TJP1_3, Q07157 (Q07157 416-512): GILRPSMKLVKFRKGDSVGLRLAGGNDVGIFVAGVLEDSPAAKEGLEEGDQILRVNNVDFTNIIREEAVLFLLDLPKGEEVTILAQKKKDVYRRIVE

Binder	pKd
B1	below the threshold
B2	below the threshold
B3	below the threshold
B4	below the threshold

Biological target: GRID2IP_1, A4D2P6
Experiment: holdup assay
Set-up: key: below the threshold = too weak to quantify, mostly under pKd 3.1 to 4
Settings: plain residues with an end cap or a label only (N-terminal biotin on a linker: ado-ado)

Chain of GRID2IP_1, A4D2P6 (A4D2P6 1-87): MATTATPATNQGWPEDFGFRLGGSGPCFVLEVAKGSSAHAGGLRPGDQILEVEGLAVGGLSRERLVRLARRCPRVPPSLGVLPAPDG

Binder	pKd
B1	below the threshold
B2	below the threshold
B3	below the threshold
B4	below the threshold

Biological target: T9, DFNB31_3, Q9P202
T9 sequence (Q9P202 811-907, limits assumed, looked up): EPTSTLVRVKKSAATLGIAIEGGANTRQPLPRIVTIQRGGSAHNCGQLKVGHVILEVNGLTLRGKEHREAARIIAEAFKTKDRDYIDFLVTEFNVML
Experiment: holdup assay
Set-up: key: below the threshold = too weak to quantify, mostly under pKd 3.1 to 4
Settings: plain residues with an end cap or a label only (N-terminal biotin on a linker: ado-ado)

Binder	pKd
B1	below the threshold
B2	3.59
B3	4.62
B4	below the threshold

Biological target: GORASP2, Q9H8Y8
Experiment: holdup assay
Set-up: key: below the threshold = too weak to quantify, mostly under pKd 3.1 to 4
Settings: plain residues with an end cap or a label only (N-terminal biotin on a linker: ado-ado)

Binder	pKd
B1	below the threshold
B2	below the threshold
B3	5.05
B4	below the threshold

Biological target: LNX1_3, Q8TBB1
Experiment: holdup assay
Set-up: key: below the threshold = too weak to quantify, mostly under pKd 3.1 to 4
Settings: plain residues with an end cap or a label only (N-terminal biotin on a linker: ado-ado)

Chain of LNX1_3, Q8TBB1 (Q8TBB1 500-596): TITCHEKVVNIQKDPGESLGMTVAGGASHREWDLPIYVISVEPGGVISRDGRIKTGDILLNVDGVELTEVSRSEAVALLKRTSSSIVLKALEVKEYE

Binder	pKd
B1	below the threshold
B2	below the threshold
B3	3.95
B4	below the threshold

Biological target: T10, LIN7C, Q9NUP9
T10 sequence (Q9NUP9 88-185, limits assumed, looked up): T6 sequence (O14910 103-200, limits assumed, looked up) with D13E, V20I, V40I, E42D, K77Q, D78G, S79K, A96S
Experiment: holdup assay
Set-up: key: below the threshold = too weak to quantify, mostly under pKd 3.1 to 4
Settings: plain residues with an end cap or a label only (N-terminal biotin on a linker: ado-ado)

Binder	pKd
B1	3.95
B2	below the threshold
B3	below the threshold
B4	below the threshold

Biological target: T11, MPDZ_5, O75970
T11 sequence (O75970 695-796, limits assumed, looked up): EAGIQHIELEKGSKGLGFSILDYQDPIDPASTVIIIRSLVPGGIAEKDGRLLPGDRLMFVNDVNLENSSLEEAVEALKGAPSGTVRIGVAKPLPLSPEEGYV
Experiment: holdup assay
Set-up: key: below the threshold = too weak to quantify, mostly under pKd 3.1 to 4
Settings: plain residues with an end cap or a label only (N-terminal biotin on a linker: ado-ado)

Binder	pKd
B1	below the threshold
B2	below the threshold
B3	below the threshold
B4	below the threshold

Biological target: MAGI2_5, Q86UL8
Experiment: holdup assay
Set-up: key: below the threshold = too weak to quantify, mostly under pKd 3.1 to 4
Settings: plain residues with an end cap or a label only (N-terminal biotin on a linker: ado-ado)

Chain of MAGI2_5, Q86UL8 (Q86UL8 915-1017): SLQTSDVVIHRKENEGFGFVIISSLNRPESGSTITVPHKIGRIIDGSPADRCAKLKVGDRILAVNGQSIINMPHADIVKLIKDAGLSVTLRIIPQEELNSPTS

Binder	pKd
B1	below the threshold
B2	below the threshold
B3	4.86
B4	below the threshold

Biological target: T12, GRIP1_7, Q9Y3R0
T12 sequence (Q9Y3R0 999-1096, limits assumed, looked up): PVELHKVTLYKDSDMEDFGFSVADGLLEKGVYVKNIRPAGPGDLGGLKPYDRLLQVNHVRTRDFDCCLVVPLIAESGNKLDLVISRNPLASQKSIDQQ
Experiment: holdup assay
Set-up: key: below the threshold = too weak to quantify, mostly under pKd 3.1 to 4
Settings: plain residues with an end cap or a label only (N-terminal biotin on a linker: ado-ado)

Binder	pKd
B1	below the threshold
B2	below the threshold
B3	below the threshold
B4	below the threshold

Biological target: MAST2, Q6P0Q8
Experiment: holdup assay
Set-up: key: below the threshold = too weak to quantify, mostly under pKd 3.1 to 4
Settings: plain residues with an end cap or a label only (N-terminal biotin on a linker: ado-ado)

Chain of MAST2, Q6P0Q8 (Q6P0Q8 1099-1202): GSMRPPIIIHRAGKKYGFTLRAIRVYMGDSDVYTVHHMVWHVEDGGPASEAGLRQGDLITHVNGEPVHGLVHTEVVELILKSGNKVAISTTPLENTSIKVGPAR

Binder	pKd
B1	3.62
B2	4.31
B3	5.62
B4	4.95

Biological target: FRMPD2_2, Q68DX3
Experiment: holdup assay
Set-up: key: below the threshold = too weak to quantify, mostly under pKd 3.1 to 4
Settings: plain residues with an end cap or a label only (N-terminal biotin on a linker: ado-ado)

Chain of FRMPD2_2, Q68DX3 (Q68DX3 944-1038): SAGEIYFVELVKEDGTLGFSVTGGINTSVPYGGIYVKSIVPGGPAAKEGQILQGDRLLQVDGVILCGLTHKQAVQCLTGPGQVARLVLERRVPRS

Binder	pKd
B1	below the threshold
B2	below the threshold
B3	below the threshold
B4	below the threshold

Biological target: T13, NHERF3_3, Q5T2W1
T13 sequence (Q5T2W1 238-333, limits assumed, looked up): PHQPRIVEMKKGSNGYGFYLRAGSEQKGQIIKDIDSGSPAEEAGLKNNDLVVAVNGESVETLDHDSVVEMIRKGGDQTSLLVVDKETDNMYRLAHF
Experiment: holdup assay
Set-up: key: below the threshold = too weak to quantify, mostly under pKd 3.1 to 4
Settings: plain residues with an end cap or a label only (N-terminal biotin on a linker: ado-ado)

Binder	pKd
B1	below the threshold
B2	below the threshold
B3	3.5
B4	below the threshold

Biological target: AHNAK1, Q09666
Experiment: holdup assay
Set-up: key: below the threshold = too weak to quantify, mostly under pKd 3.1 to 4
Settings: plain residues with an end cap or a label only (N-terminal biotin on a linker: ado-ado)

Chain of AHNAK1, Q09666 (Q09666 4-100): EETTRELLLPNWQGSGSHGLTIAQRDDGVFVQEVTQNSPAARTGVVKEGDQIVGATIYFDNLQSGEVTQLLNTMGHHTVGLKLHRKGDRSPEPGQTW

Binder	pKd
B1	below the threshold
B2	below the threshold
B3	below the threshold
B4	below the threshold
